According to US20220041740A1 (LIFEARC, published 2022):
Residue numbers refer to the chain shown, from its start. Each block holds one binder with its values, some of them ahead of it.

Columns and labels:
[1] = molecular target: T1, recombinant Human IL-17BR-His extracellular domain (human, UniProt Q9NRM6 18-292); experiment: Biacore T200, antibody captured by anti-human Fc, Human IL17BR-His 20-1.25 nM, 1:1 model
T1 construct: extracellular domain; also called human IL17BR-his tag protein
T1 sequence (looked up): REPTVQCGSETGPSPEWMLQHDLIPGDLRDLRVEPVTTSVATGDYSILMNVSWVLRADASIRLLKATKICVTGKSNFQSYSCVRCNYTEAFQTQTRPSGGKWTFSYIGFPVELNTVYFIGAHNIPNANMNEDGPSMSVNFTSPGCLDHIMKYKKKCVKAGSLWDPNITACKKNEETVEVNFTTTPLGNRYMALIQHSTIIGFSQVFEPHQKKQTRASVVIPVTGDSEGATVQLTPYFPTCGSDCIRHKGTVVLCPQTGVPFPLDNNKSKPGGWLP
Description: A Human Antibody Capture kit was used to coat an anti-human IgG (Fc) antibody (in 10 mM sodium acetate, pH 5.0 immobilisation buffer) onto flow paths 2-4 a CM5 chip. Flow-path 1 was blocked and used as a blank control. This anti-human IgG coated chip was then used to immobilize the humanized antibody variants. A concentration series from 20-1.25 nM of Human IL17BR-His using a 2-fold dilution series was made using HBS-EP⁺ buffer. Purified antibody samples were diluted to 1 μg/ml in HBS-EP⁺ buffer and each injected onto one coated flow-path on the chip at a flow-rate of 10 μl/min for 2 mins in a Biacore T200 (GE Healthcare). Association time was set to 8 mins and Dissociation to 90 mins at a flow-rate of 30 μl/min Kinetics of binding/dissociation were analysed using a 1:1 model in the BIAevaluation software
8. Kinetics of the Binding of Humanized hD9040, hD9041 and hD9042 Antibodies to IL-17BR To further characterize the binding of the lead humanized candidates hD9040, hD9041 and hD9042 antibodies to Human IL-17BR-His, kinetics experiments were performed using the Biacore T200 instrument.

[2] = molecular target: T1, recombinant Human IL-17BR-His …; experiment: binding ELISA on Human IL-17BR-His, absorbance 650 nm against antibody conc. (nM)
human IL17RD-his tag = molecular target: T2, human IL17RD-his tag (human, UniProt Q8NFM7 17-299, limits assumed); experiment: ELISA, plate coated with 2 ug/ml human IL17RD-his tag, absorbance 450 nm
T2 construct: Bought
T2 sequence (looked up): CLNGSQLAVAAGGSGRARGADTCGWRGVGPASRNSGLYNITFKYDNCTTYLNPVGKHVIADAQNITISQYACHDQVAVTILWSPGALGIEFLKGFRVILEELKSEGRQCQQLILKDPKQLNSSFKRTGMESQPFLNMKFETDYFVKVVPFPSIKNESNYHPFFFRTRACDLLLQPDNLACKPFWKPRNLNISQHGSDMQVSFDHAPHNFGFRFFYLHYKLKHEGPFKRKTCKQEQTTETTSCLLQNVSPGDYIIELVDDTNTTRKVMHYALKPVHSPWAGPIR
Description: (§1) ELISA plates were coated overnight at 4° C. with 2 μg/ml human IL17RA-Fc fusion protein(Sino Biological, 10895-H03H), human IL17BR-his tag protein (Sino Biological, 13091-H08H), human IL17RC-histag protein (11747-H08B), human IL17RD-his tag (10507-H08H). The next day, plates were blocked with 1% BSA in PBS, followed by the addition of hD9042. The binding specificity of hD9042 was measured as the absorbance at 450 nm using anti-human IgG F(ab′)2 peroxidase antibody (Jackson ImmunoResearch Inc).

[3] = molecular target: T3, human IL17RC-histag protein (human, UniProt Q8NAC3-2 21-467, limits assumed); experiment: ELISA, plate coated with 2 ug/ml human IL17RC-histag protein, absorbance 450 nm
T3 construct: Bought
T3 sequence (looked up): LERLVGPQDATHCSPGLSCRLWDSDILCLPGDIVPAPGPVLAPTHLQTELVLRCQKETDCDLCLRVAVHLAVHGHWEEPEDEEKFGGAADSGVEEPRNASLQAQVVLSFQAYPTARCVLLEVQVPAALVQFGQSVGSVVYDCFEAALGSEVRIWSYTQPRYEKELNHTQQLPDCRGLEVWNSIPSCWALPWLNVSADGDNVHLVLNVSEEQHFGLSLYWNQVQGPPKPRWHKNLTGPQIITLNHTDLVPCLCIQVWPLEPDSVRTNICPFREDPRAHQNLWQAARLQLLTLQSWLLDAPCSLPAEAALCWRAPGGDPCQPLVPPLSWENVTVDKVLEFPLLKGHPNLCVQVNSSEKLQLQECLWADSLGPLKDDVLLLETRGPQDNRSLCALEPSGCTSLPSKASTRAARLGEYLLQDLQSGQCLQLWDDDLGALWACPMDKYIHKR
Description: as §1

[4] = molecular target: T1, recombinant Human IL-17BR-His …; experiment: ELISA, plate coated with 2 ug/ml human IL17BR-his tag protein, detection with anti-human IgG F(ab')2 peroxidase antibody
Description: as §1

[5] = molecular target: T4, human IL17RA-Fc fusion protein (human, UniProt Q96F46 33-320); experiment: ELISA, plate coated with 2 ug/ml human IL17RA-Fc fusion protein, absorbance 450 nm
T4 construct: Bought; not shown: Fc part of the bought fusion, not described
T4 sequence (looked up): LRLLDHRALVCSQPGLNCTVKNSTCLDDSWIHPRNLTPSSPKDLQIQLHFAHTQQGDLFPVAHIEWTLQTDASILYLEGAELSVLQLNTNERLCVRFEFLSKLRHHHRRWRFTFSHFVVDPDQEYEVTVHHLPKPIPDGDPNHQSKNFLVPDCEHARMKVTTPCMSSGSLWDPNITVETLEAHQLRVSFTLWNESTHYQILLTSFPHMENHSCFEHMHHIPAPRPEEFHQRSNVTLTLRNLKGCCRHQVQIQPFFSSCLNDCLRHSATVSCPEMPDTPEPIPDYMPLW
Description: as §1

[6] = molecular target: T1, recombinant Human IL-17BR-His …; experiment: binding ELISA on recombinant Human IL-17BR-His extracellular domain, absorbance 450 nm against antibody conc. (nM)
Mouse IL-17BR-(Fc) = molecular target: T5, Mouse IL-17BR-(Fc) (mouse, UniProt Q9JIP3 18-286); experiment: binding ELISA on recombinant Mouse IL-17BR-(Fc) extracellular domain, absorbance 450 nm against antibody conc. (nM)
T5 construct: extracellular domain; Bought (Sino Biological); not shown: Fc part of the bought fusion (Sino Biological), not described
T5 sequence (looked up): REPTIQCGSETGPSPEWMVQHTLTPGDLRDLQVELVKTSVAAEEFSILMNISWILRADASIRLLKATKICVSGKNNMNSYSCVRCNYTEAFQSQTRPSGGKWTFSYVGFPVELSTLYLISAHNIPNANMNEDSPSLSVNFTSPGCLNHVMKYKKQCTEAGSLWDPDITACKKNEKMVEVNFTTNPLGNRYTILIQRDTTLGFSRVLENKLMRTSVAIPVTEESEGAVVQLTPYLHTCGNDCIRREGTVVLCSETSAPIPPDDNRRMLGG

[7] = molecular target: Cynomolgus monkey IL-17BR-monoFc (cynomolgus monkey, UniProt A0A2K5TUK1 18-292); experiment: binding ELISA on recombinant Cynomolgus monkey IL-17BR-monoFc extracellular domain, absorbance 450 nm against antibody conc. (nM)
Chain of Cynomolgus monkey IL-17BR-monoFc (A0A2K5TUK1 entry or part of it): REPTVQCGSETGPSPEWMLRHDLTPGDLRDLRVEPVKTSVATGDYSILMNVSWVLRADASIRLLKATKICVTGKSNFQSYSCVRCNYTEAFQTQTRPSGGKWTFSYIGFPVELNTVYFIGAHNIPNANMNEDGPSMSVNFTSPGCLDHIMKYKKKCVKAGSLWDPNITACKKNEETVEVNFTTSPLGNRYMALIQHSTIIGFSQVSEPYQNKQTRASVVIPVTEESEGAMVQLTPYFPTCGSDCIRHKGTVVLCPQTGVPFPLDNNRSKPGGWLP

Kd [1]: 0.02 nM
koff [1]: 6.66e-05 s⁻¹
kon [1]: 3.42e+06 M⁻¹ s⁻¹
EC50 [2]: 0.474 nM
B1: humanized antibody hD9040 (antibody, V domains shown)
VH: EVQLVQSGAEVKKPGASVKVSCKTSGYTFISYWMNWVRQAPGQGLEWMGRIDPYDSEIQYNQKFKDRVTLTRDTSISTAYMELSRLRSDDTAVYYCARSGGFDWFAYWGQGTLVTVSS
VL: DIQMTQSPSSLSASVGDRVTITCRASENINSNLAWYQQKPGKAPKLLLYDVTNLADGVPSRFSGSGSGTDYTLTISSLQPEDFATYYCQHFWGPPYTFGGGTKVEIK
notes: Human IgG1/kappa (pHuG1, pHuK vectors)

Kd [1]: 0.011 nM
koff [1]: 4.44e-05 s⁻¹
kon [1]: 3.89e+06 M⁻¹ s⁻¹
EC50 [2]: 0.499 nM
B2: humanized antibody hD9041 (antibody, V domains shown)
VH: B1 VH with N61A, K65Q, D66G
VL: B1 VL
notes: as for B1

Kd [1]: 0.017 nM
koff [1]: 8.23e-05 s⁻¹
kon [1]: 4.85e+06 M⁻¹ s⁻¹
binding result (human IL17RD-his tag): no binding
binding result [3]: no binding
EC50 (read off the curve) [4]: ~0.3 nM
EC50 [2]: 0.414 nM
binding result [5]: no binding
B3: humanized antibody hD9042 (antibody, V domains shown)
VH: B1 VH with E1Q, T24A, L70M
VL: B1 VL
notes: Human IgG1/kappa (pHuG1, pHuK vectors); also called lead candidate

EC50 [6]: 0.23 nM
Kd [1]: 0.017 nM
koff [1]: 5e-05 s⁻¹
kon [1]: 2.9e+06 M⁻¹ s⁻¹
EC50 (Mouse IL-17BR-(Fc)): 0.216 nM
EC50 [7]: 0.291 nM
B4: chimeric antibody cD9001 (antibody, V domains shown)
VH: QVQLQQPGAELVRPGASVKLSCKTSGYTFISYWMNWVKQGPEQGLEWIGRIDPYDSEIQYNQKFKDKAILTVDKSSSAAYMQLISLTSEDSAVYYCARSGGFDWFAYWGQGTLVTVSA
VL: DIQMTQSPASLSVSVGETVTITCRASENINSNLAWYQQKKGKSPQLLVYDVTNLADGVPSRFSGSGSGTQYSLKINSLQSEDFGSYYCQHFWRPPYTFGGGTNLEIK
notes: Mouse D9.2 variable domains on human IgG1/kappa constant regions; also called chimeric D9.2
